Source: US20190309085A1

Biological target: CD16aV (human) (UniProt P08637)
Test: BLI (Octet), His-captured hCD16aV, 1:1 model

Sequence of CD16aV (human) (P08637 17-208 F176V limits assumed): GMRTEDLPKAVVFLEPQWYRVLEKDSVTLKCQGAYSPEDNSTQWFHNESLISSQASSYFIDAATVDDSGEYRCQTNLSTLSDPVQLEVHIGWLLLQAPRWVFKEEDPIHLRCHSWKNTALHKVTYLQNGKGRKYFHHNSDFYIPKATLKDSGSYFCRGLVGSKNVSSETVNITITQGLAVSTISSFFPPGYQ

## Fc-WT (antibody)
  Kd: 580 nM
